The values that follow come from patent US12714749B2, “Anti-CK8 antibody and exosome compositions, methods of making, and methods of treating” (PEAK WAY GROUP INC., priority 2022, dated 2026).

One test relates to MCF-7/MX cells. Description: SRB method, sensitivity of cells to chemotherapy drugs. In kind it is cell-based. Particulars: Homo sapiens, MCF7/MX, read-out: IC50 of chemotherapy drug. On the procedure: The SRB method was used to detect the sensitivity of cells to chemotherapy drugs: 800 μg/L mitoxantrone was added in the process of culturing MCF-7/MX cells to maintain drug resistance, and the drug administration stopped two weeks before experiment. 100 μg/mL CK8-1R5 monoclonal antibody and/or 100 μg/mL BCRP inhibitor KS176 (Bai Olette, product No.: M01428) were added into cell culture wells of MCF-7/MX cells, and the culture medium was added for blank control. After 24 hours of culture, digestive cells were inoculated into a 96-well plate, with 2000 cells/well, and 3 double wells. The cells were continued to be cultured for 24 h until complete adherence. After adding different concentrations of chemotherapy drugs (mitoxantrone, topotecan, and daunorubicin) to act for 48 h, the culture was terminated. 50 IA of pre-cooled 50% (mass/volume) trichloroacetic acid was added into each well for immobilizing cells, and the culture plate was transferred into a refrigerator at 4° C. after standing for 1 h; the culture plate was taken, each well was washed with deionized water 5 times to remove TCA, and then dried in air; after complete drying, 100 μl of 0.4% SRB prepared with 1% acetic acid was added into each well and stained for 30 min at room temperature, and then the solution in each well was discarded; the well was washed 5 times using 1% acetic acid to remove unbound dye, and dried in air; 150 μl of 10 mM Tris alkaline solution with pH 10.5 was used for dissolving the sample in each well, the sample was oscillated for 5 min on a flat oscillator, and the absorbance of each well at 490 nm was measured on a BioRad microplate reader. The IC50 value was calculated using Prism software.

The target of test [1] is T1, CK8 protein (Homo sapiens, UniProt P05787).
T1 construct: made in house; host or cells: E. coli BL21 (DE3), vector pET-28a(+)
T1 sequence (P05787 1-483): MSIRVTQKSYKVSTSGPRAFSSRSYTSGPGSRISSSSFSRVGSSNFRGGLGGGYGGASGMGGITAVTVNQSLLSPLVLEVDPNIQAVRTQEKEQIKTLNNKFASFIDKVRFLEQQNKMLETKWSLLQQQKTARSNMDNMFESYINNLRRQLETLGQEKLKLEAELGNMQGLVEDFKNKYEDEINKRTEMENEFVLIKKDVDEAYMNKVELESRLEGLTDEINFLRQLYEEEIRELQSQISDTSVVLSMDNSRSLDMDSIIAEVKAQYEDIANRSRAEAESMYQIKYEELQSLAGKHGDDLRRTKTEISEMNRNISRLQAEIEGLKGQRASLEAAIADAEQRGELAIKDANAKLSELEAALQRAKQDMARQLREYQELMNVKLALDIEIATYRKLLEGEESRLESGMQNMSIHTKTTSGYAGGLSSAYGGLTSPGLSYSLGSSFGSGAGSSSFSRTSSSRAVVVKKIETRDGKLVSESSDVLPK
Description: Indirect ELISA titer of monoclonal antibody. The format is binding. On the procedure: The titer of monoclonal antibodies was determined using an indirect ELISA method. An ELIASA plate (100 μl/well) was coated with […] of purified recombinant CK8 protein overnight at 4° C., and sealed for 1 h at 10% BSA room temperature. Different concentrations of CK8-1R5 monoclonal antibodies subjected to multiple dilution were added respectively, and incubated at 37° C. for 1 h. After washing 3 times with 0.05% PBST, HRP labeled sheep anti-mouse IgG with a dilution of 1:2000 was added, and the obtained mixture was incubated at 37° C. for 1 h and then washed. A developing agent ABTS was added, and the absorbance (A) value at a wavelength of 405 nm was read on microplate reader. Simultaneously, SP2/0 myeloma cell culture supernatant was used as negative control. The highest dilution ratio of the sample that produces a positive reaction was used as its potency.
(In general: ELISA stands for enzyme-linked immunosorbent assay.)

For another test, the system named is MCF7/MX cells. Description: Tumor growth in mice subcutaneously inoculated with MCF7/MX cells. The format is in vivo. Particulars: after 14 days of administration; FIG. 4. On the procedure:
MCF-7 was selected as a source cell of a tumor exosome, and the culture medium was DMEM with 10% Fetal bovine serum. After being transferred to a cell incubator (37° C. constant temperature, volume fraction, 5% CO2) for 48 h, the supernatant of tumor cells was collected and gradient centrifuged (2000×g, centrifuge, 20 min, 10000×g, centrifuge for 30 min) to remove cell debris, large vesicles were removed using a 0.22 μm filter; the filtrate was centrifuged for 70 min at 100000×g, the supernatant was discarded and then resuspended with 100 μL of DPBS at the bottom of a centrifuge tube, and the exosomes were recovered and stored at […] in refrigerator for future use. […]
After the inguinal areas of mice were subcutaneously inoculated with 5×10^5 MCF7/MX cells for 7 d, tumor bearing mice were randomly divided into 5 groups according to random number table: blank control group, exosome group loaded with erythromycin, exosome group loaded with CK8-1R5 monoclonal antibody combined with erythromycin, CK8-1R5 monoclonal antibody group, and erythromycin group. […] After 14 days of the first administration, the mice were euthanized and the tumor volume=short diameter^2×Long diameter/2 was measured[…].

Test [2] has as its target T1, CK8 protein. Description: Binding ability test (antibody on aminopropyl sensor, spectral phase difference). The conditions noted are these: fit from binding and dissociation phase difference; read-out: affinity for CK8 protein. On the procedure: Binding ability test: 1 mg of CK8-1R5 monoclonal antibody was taken and dispersed into 1 mL of PBS buffer solution; the prepared antibody dispersion was immobilized on an aminopropyl sensor, the sensor immobilized with the antibody was balanced in PBS buffer and then interact with different concentrations of CK8 protein solutions respectively, and then the spectral phase difference caused by CK8 protein binding to the antibody was recorded. After binding equilibrium, the sensor was placed in PBS buffer, the spectral phase difference caused by protein dissociation from the antibody was recorded, and the antibody's affinity to the protein was fit based on the phase difference.

Test [3] addresses T1, CK8 protein. Briefly: Specificity identification by ELISA. In kind it is binding. The conditions noted are these: plate coated with CK8 protein, MCF7 cell lysate, BSA, Escherichia coli lysate, NIH3T3 lysate; FIG. 3. On the procedure:
Specificity identification: each 1 μg of CK8 protein, MCF7 cell lysate, BSA, Escherichia coli lysate and mouse fibroblast NIH3T3 lysate was used to coat the ELISA plate, with PBS wells as blank control. After washing with PBS, 2.5% skimmed milk was added and the plate was sealed at room temperature for 1 h. After washing with PBS, 1:10 diluted cell culture supernatant (monoclonal antibody, primary antibody) was added, the plate was incubated at 37° C. for 1 and washed with 0.05% PBST 3 times, 1:2000 diluted HRP labeled sheep anti-mouse IgG (second antibody) was added, washed after incubation at 37° C. for 1 h, a developing agent ABTS was added, and the absorbance (A) value at 405 nm wavelength was read on the microplate reader.

Setting [4] is: MCF-7/MX cells without inhibitor, drug 48 h.

Read-outs that look alike come from different tables or passages of the source.

A word on the IC50: it is the concentration at which inhibition is half-maximal. Consider `COc1cccc2c1C(=O)c1c(O)c3c(c(O)c1C2=O)C[C@@](O)(C(C)=O)C[C@@H]3O[C@H]1C[C@H](N)[C@H](O)[C@H](C)O1` [Daunorubicin, daunorubicin], for which the IC50 in the test on MCF-7/MX cells (48 h) is 0.431 ± 0.0102 µM.
Regarding `O=C1c2c(O)ccc(O)c2C(=O)c2c(NCCNCCO)ccc(NCCNCCO)c21` [Mitoxantrone, mitoxantrone], the IC50 in the test with MCF-7/MX cells (setting [4]) is 25 ± 1.35 µM.
With `CC[C@@]1(O)C(=O)OCc2c1cc1n(c2=O)Cc2cc3c(CN(C)C)c(O)ccc3nc2-1` [Topotecan, topotecan], in the test on MCF-7/MX cells (setting [4]), the IC50 came to 18 ± 1.34 µM.

B1: CK8-1R5: mouse monoclonal antibody (IgG1) specifically binding to CK8; heavy chain variable region SEQ ID NO: 1, light chain SEQ ID NO: 2 (antibody, V domains shown)
VH: EVQLVESGGGLVQPGGSLRLSCAASGFSLSIPYIYWVRQAPGKGLEWVGAQGCGNFYLGWFGVMSRFTISKDNSKNTLYLQMNSLRAEDTAVYYCARFYGMVEIEHVEDVWGQGTLVTVSS
VL: AYQMTQSPSSVSASVGDRVTITCVQPKPHPMCRKWYQQKPGKAPKLLIYMQKDQDNGVPSRFSGSGSGTDFTLTISSLQPEDFATYYCFFPRSRTVCDPKEFGGGTKVEIK
modifications: Glu Val Gln Leu Val Glu Ser Gly Gly Gly Leu Val Gln Pro Gly Gly Ser Leu Arg Leu Ser Cys Ala Ala Ser Gly Phe Ser Leu Ser Ile Pro Tyr Ile Tyr Trp Val Arg Gln Ala Pro Gly Lys Gly Leu Glu Trp Val Gly Ala Gln Gly Cys Gly Asn Phe Tyr Leu Gly Trp Phe Gly Val Met; The amino acid sequence of the present application is artificially synthesized
As for B1, the “absorbance (A) value at 405 nm” value with CK8 protein [1] (antibody dilution 1:400) stood at 1.679; with CK8 protein [1] (antibody dilution 1:800), 1.136; with CK8 protein [1] (antibody dilution 1:1600), 0.821; in the test with CK8 protein [1] (antibody dilution 1:3200) it was 0.596; with CK8 protein [1] (antibody dilution 1:6400) it was 0.284. For the same molecule, in the test with MCF7/MX cells, the “tumor volume difference versus blank control group” value is listed as “no statistically significant difference (P>0.05)”. Moreover, in the test with CK8 protein [2], the Kd came out at 0.00633 µM. Further, in the test with CK8 protein [3], the specificity of binding result is “only binds to CK8 protein or MCF7 cell lysate expressing the CK8 protein”.
